Laboratory results: publication PMC10384591, “Multi-Enzymatic Cascade for Efficient Deracemization of DL-Pantolactone into D-Pantolactone” (Molecules, 2023)

What was measured:
[1] = target: T1, NasLPLDH (Nocardia asteroides, UniProt U5EKS1); test: substrate specificity, dehydrogenation by recombinant enzyme; format: cell-based; conditions: recombinant E. coli BL21(DE3); FMN-dependent
T1 construct: gene NCAST_32_01610; pET28a, codon-optimized synthetic gene, E. coli BL21(DE3)
T1 sequence (U5EKS1 1-404): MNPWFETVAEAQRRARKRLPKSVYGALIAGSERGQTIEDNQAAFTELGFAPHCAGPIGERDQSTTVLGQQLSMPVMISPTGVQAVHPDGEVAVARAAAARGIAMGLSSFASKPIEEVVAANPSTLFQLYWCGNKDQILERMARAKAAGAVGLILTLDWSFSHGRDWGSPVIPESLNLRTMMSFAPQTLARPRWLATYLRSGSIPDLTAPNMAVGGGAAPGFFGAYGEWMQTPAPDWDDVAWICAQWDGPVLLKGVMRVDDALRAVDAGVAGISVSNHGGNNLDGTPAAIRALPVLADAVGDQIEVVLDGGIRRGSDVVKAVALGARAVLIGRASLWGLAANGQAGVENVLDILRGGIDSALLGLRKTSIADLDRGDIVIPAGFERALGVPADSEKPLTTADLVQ

[2] = test system: T2, ZpaCPR; test: NADPH oxidation, absorbance […] nm, Michaelis-Menten fit; format: biochemical, Zygosaccharomyces parabailii; conditions: 0.15 mM NADPH, 200 mM PBS pH 5.5, 45 °C
T2 construct: gene CPR; pET28a, codon-optimized synthetic gene, E. coli BL21(DE3), Ni-NTA purified

[3] = target: T3, CduCPR (Candida dubliniensis, UniProt B9WJQ5); test: whole-cell reduction to D-pantolactone; format: cell-based; conditions: E. coli cells co-expressing EsGDH
T3 construct: gene CPR-C2; pACYCDuet-1, co-expressed with EsGDH in E. coli BL21(DE3) cells
T3 sequence (B9WJQ5 1-309): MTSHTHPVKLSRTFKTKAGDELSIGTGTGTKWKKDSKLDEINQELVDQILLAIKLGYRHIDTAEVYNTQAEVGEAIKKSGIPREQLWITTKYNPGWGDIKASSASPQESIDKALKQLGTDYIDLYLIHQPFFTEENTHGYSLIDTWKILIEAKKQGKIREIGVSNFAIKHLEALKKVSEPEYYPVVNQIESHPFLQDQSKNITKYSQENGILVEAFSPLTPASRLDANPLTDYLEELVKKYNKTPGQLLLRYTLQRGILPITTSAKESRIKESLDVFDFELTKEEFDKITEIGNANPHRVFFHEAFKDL

[4] = substrate: CC1(C)COC(=O)[C@H]1O; test: purified protein; format: biochemical, Amycolatopsis methanolica; conditions: 0.15 mM FMN, 200 mM PBS pH 8.0, 30 °C

For `CC1(C)COC(=O)[C@H]1O` [L-pantolactone], the “substrate specificity, dehydrogenation by recombinant enzyme” value [1] was “all five LPLDHs showed the capacity to catalyze the dehydrogenation of L-pantolactone but not D-pantolactone”.

In the case of `CC1(C)COC(=O)C1=O` [ketopantolactone], the Km [2] is reported as 3.65 ± 0.58 mM and the “whole-cell reduction to D-pantolactone” value [3] is reported as “used to catalyze the reduction of ketopantolactone, affording the single D-enantiomer”.

B1: AmeLPLDH (Amycolatopsis methanolica 239) (protein)
chain: MSNGWFETVAEAQRRARKRLPKSVYGALVAGSERGITVDDNIAAFAELGFAPHVAGLSDKRELGTTVMGQPISLPVVISPTGVQAVHPDGEVAVARAAAARGTAMGLSSFASKSIEEVAAANPQTFFQMYWVGSRDVLVQRMERARAAGAVGLIMTLDWSFSTGRDWGSPVIPEKLDLKAMARFAPEGITRPKWLWDFAKTRKLPDLTTPNLTPPGGTAPTFFGAYGEWMQTPLPTWEDVAWLREQWGGPFMLKGVMRVDDAKRAVDAGVTAISVSNHGGNNLDGTPAPIRALPAIADAVGGDVEVLLDGGIRRGSDVVKAIALGAKAVLIGRAYLWGLAANGQAGVENVLDILRGGIDSAVLGLGKTSIHELTRDDVVIPPGFERALGVPKS
notes: pET28a, codon-optimized synthetic gene, E. coli BL21(DE3), Ni-NTA purified, Brij 35 solubilised
B1 was tested, and the Km [4] was 0.57 ± 0.04 mM, the Vmax [4] was 52.5 µmol/min/mg and the kcat [4] was 36.41 ± 0.29 s⁻¹. For the same molecule, the kcat/Km [4] was 63850 ± 510 M⁻¹ s⁻¹.
